# Data published in patent US20250011363A1, “OPTIMIZED SHORTENED PEPTIDE THAT BINDS TO ACETYLCHOLINE RECEPTOR, AND USE THEREOF” (SKINMED CO., LTD., priority 2021, published 2025).
# Target: acetylcholine receptor (Homo sapiens, UniProt P02708)
# Test: SPR binding affinity (RU) of optimized 5mer/6mer/7mer peptides, Examples 6-7
# Conditions: 6mer-1 Top sequence; SPR; peptides tested at 10 μM
# How it was run: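 Single-concentration screen: 10 μM peptide, SPR detection, binding expressed as RU.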
# acetylcholine receptor, sequence (P02708 21-457): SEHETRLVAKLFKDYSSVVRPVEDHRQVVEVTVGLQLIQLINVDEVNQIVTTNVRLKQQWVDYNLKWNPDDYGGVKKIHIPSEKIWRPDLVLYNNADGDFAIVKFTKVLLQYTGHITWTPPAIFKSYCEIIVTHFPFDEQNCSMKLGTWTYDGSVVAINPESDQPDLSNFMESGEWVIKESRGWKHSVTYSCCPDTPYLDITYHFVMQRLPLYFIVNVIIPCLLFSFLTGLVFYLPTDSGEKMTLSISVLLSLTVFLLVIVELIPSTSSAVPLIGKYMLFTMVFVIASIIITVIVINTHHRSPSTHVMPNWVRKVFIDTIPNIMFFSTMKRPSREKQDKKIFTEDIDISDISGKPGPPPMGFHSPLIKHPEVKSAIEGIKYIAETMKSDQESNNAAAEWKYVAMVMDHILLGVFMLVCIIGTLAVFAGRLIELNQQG
row,Substance,Binding affinity [Ru]
1,6mer-1-401 (RRLYCR),127
2,6mer-1-358 (KRRYTR),124
3,6mer-1-250 (RRVICR),142
4,6mer-1-298 (KKLYCK),147
5,6mer-1-271 (RRQVSK),122
6,6mer-1-287 (RKWLTR),136
7,6mer-1-329 (RKWRQK),123
8,6mer-1-312 (KKSRQK),151
9,6mer-1-338 (KKQVLK),127

# Same assay, conditions: 6mer-2 Top sequence; SPR; peptides tested at 10 μM
row,Substance,Binding affinity [Ru]
1,6mer-2-46 (KLYLKR),153
2,6mer-2-43 (RVITKR),146
3,6mer-2-121 (KRVYRK),137
4,6mer-2-140 (KGRLKK),142
5,6mer-2-160 (RVRRKK),121
6,6mer-2-3 (KVYSRK),148
7,6mer-2-142 (RWVLRR),121
8,6mer-2-80 (RRQYKR),148
9,6mer-2-7 (KSRCRK),126
10,6mer-2-175 (KVYLRK),137

# Same assay, conditions: SPR, Resonance Units; 5mer Bottom sequence (bottom combinations); peptides tested at 10 μM
row,Substance,Binding affinity [Ru]
1,5mer-619 (KCSFK),19
2,5mer-979 (RHHMK),23
3,5mer-906 (RKHAK),31
4,5mer-793 (KKPHR),19
5,5mer-617 (RYCAK),28
6,5mer-929 (KYTFR),28
7,5mer-1094 (RYSMK),15
8,5mer-628 (RYMDR),19
9,5mer-1009 (KMCAK),29
10,5mer-996 (RMTKK),32
11,5mer-683 (KYPDK),32
12,5mer-648 (KNKKR),15
13,5mer-978 (RYDHK),30
14,5mer-646 (KDTKR),16
15,5mer-605 (RECFK),22

# Same assay, conditions: SPR, Resonance Units; peptides tested at 10 μM; 6mer-1 Bottom sequence
row,Substance,Binding affinity [Ru]
1,6mer-1-1035 (RRCHHR),34
2,6mer-1-1111 (RRASPR),38
3,6mer-1-1092 (RKYHDK),43
4,6mer-1-1026 (RKKCER),30
5,6mer-1-1106 (KRFMNK),39
6,6mer-1-1093 (RRKSDR),37
7,6mer-1-1040 (KRIEFR),28

# Same assay, conditions: SPR, Resonance Units; peptides tested at 10 μM; 6mer-1 Bottom sequence (Table 11)
row,Substance,Binding affinity [Ru]
1,6mer-1-689 (KRCPVR),11
2,6mer-1-688 (RKDEVR),33
3,6mer-1-791 (RKPDDK),13
4,6mer-1-746 (RKMSVK),24
5,6mer-1-711 (RRATHR),19
6,6mer-1-652 (RRPEVK),26
7,6mer-1-699 (RRTTVR),28
8,6mer-1-795 (KKCHMR),12
9,6mer-1-693 (RKIDMK),22
10,6mer-1-705 (KRTEWR),12
11,6mer-1-661 (RKPKWR),14

# Same assay, conditions: SPR, Resonance Units; peptides tested at 10 μM; 6mer-2 Bottom sequence
row,Substance,Binding affinity [Ru]
1,6mer-2-610 (RKNPKR),32
2,6mer-2-732 (KPTWRK),24
3,6mer-2-855 (REMIKR),19
4,6mer-2-881 (KDTEKK),33
5,6mer-2-895 (KYMAKK),28
6,6mer-2-653 (KIEMKR),20
7,6mer-2-991 (KCHFRR),30
8,6mer-2-656 (KADPRR),11
9,6mer-2-935 (KKCNKK),22
10,6mer-2-650 (RFKARK),18
11,6mer-2-826 (RNTPRK),11
12,6mer-2-797 (RHCIKR),19
13,6mer-2-931 (RYCFKR),29
14,6mer-2-833 (RKTWRR),14
15,6mer-2-938 (RIEHKR),40

# Same assay, conditions: SPR, Resonance Units; peptides tested at 10 μM; 6mer-2 Top sequence
row,Substance,Binding affinity [Ru]
1,6mer-2-589 (RWQQRK),153
2,6mer-2-547 (RWQCKR),135
3,6mer-2-486 (KQQSKK),121
4,6mer-2-563 (KGYQKR),131
5,6mer-2-570 (RVYYKR),148
6,6mer-2-533 (KRLLKR),142
7,6mer-2-411 (RSRQKK),121

# Same assay, conditions: SPR, Resonance Units; peptides tested at 10 μM; 6mer-2 Top sequence (Table 12)
row,Substance,Binding affinity [Ru]
1,6mer-2-226 (RLLCKR),154
2,6mer-2-378 (KRFQRK),131
3,6mer-2-279 (KSLQRK),148
4,6mer-2-326 (RGFYKK),142
5,6mer-2-328 (KRYQRK),131
6,6mer-2-251 (KSQTKR),142
7,6mer-2-252 (KVFRKK),148
8,6mer-2-268 (RQICKK),139

# Same assay, conditions: SPR, peptides at 10 μM; 6mer-2 Bottom sequence
row,Substance,Binding affinity [Ru]
1,6mer-2-1147 (KFMKKK),35
2,6mer-2-1009 (KINPRK),34
3,6mer-2-1011 (RAEFRR),22
4,6mer-2-1034 (KHSWRR),38
5,6mer-2-1154 (RYEARR),30
6,6mer-2-1071 (RTTWRK),25
7,6mer-2-1013 (KPPDKR),23
8,6mer-2-1183 (RENNRK),35
9,6mer-2-1124 (RKTWRK),39
10,6mer-2-1122 (RCNFKK),22
11,6mer-2-1049 (KMSPRR),26

# Same assay, conditions: SPR, peptides tested at 10 μM; 5mer Top sequence
row,Substance,Binding affinity [Ru]
1,5mer-342 (KVYQR),69
2,5mer-193 (RVIRK),80
3,5mer-23 (KWLYK),86
4,5mer-97 (KRQLR),52
5,5mer-330 (RWQLR),86
6,5mer-103 (RWFLK),62
7,5mer-122 (RSYQK),78
8,5mer-305 (KRICK),72
9,5mer-69 (RSRSR),50
10,5mer-497 (KRRCR),76
11,5mer-191 (RVRCR),75
12,5mer-364 (RWITR),62
13,5mer-349 (KQVYR),50
14,5mer-308 (RLRCR),84
15,5mer-169 (RWYRK),61
16,5mer-90 (RWYTK),86
17,5mer-411 (KGRLR),66
18,5mer-403 (RRLYK),64

# Same assay, conditions: SPR, peptides tested at 10 μM; 5mer Top sequence (top combinations)
row,Substance,Binding affinity [Ru]
1,5mer-574 (KGFTR),59
2,5mer-285 (KGQLK),75
3,5mer-243 (KLLSK),51
4,5mer-536 (RLITK),78
5,5mer-518 (RVYYR),87
6,5mer-256 (RGVCK),60
7,5mer-587 (RVITR),66
8,5mer-522 (RLVYR),78
9,5mer-563 (RLVLK),60

# Same assay, conditions: SPR, peptides tested at 10 μM; 6mer-1 Bottom sequence (Table 11)
row,Substance,Binding affinity [Ru]
1,6mer-1-899 (KRMKWK),31
2,6mer-1-954 (KKAKGR),41
3,6mer-1-896 (KRDWIK),11
4,6mer-1-934 (KRPPGK),39
5,6mer-1-906 (KKINGK),30
6,6mer-1-850 (RRNPEK),29
7,6mer-1-888 (KKTANK),33

# Same assay, conditions: SPR, peptides tested at 10 μM; 6mer-1 Top sequence
row,Substance,Binding affinity [Ru]
1,6mer-1-414 (KRSFLR),153
2,6mer-1-437 (RKWFLK),131
3,6mer-1-403 (KRSQTK),153
4,6mer-1-423 (RRGYCK),147
5,6mer-1-585 (RKSRQK),144
6,6mer-1-583 (KKVLYK),139
7,6mer-1-549 (KKSYQR),142
8,6mer-1-416 (RKLIYR),153

# Same assay, conditions: SPR, peptides tested at 10 μM; 6mer-1 Top sequence (top combinations)
row,Substance,Binding affinity [Ru]
1,6mer-1-144 (RKRYTR),148
2,6mer-1-44 (KRQYCK),148
3,6mer-1-12 (KKQICK),128
4,6mer-1-22 (RKRLCK),126
5,6mer-1-173 (RKQYYR),123
6,6mer-1-170 (RKSFYR),148
7,6mer-1-175 (RRRIQK),137

# Same assay, conditions: SPR; XRRGVRR-7mer and RRGVRRX-7mer
row,Substance,"Binding affinity, values relative to the RRGVRR sequence"
1,3672 (RRGVRRT) [compound 3672],113

# Same assay, conditions: SPR; XRRQRR-6mer and RRQRRX-6mer
row,Substance,"Binding affinity, relative value to the RRQRR sequence"
1,3633 (RRQRRY) [compound 3633],105
2,3629 (RRQRRW) [compound 3629],129

# Same assay, conditions: SPR; peptides tested at 10 μM; 5mer Bottom sequence
row,Substance,Binding affinity [Ru]
1,5mer-1180 (KETAK),27
2,5mer-1147 (RDTGK),16
3,5mer-830 (RIDGK),25
4,5mer-831 (RAAGK),24
5,5mer-1187 (KHHIR),27
6,5mer-1120 (RPPDR),33
